Molecular target: the molecule itself
Assay: SEC; Superdex 200 column, final labeled products, compared with MW standards; no aggregate peak observed

B1: sCD73flagACK-biotin (soluble CD73 truncated after S552, C-terminal flag-Ala, ligated to C[K-PEG2-Biotin]) (enzyme, human, UniProt P21589 27-552, looked up)
chain: WELTILHTNDVHSRLEQTSEDSSKCVNASRCMGGVARLFTKVQQIRRAEPNVLLLDAGDQYQGTIWFTVYKGAEVAHFMNALRYDAMALGNHEFDNGVEGLIEPLLKEAKFPILSANIKAKGPLASQISGLYLPYKVLPVGDEVVGIVGYTSKETPFLSNPGTNLVFEDEITALQPEVDKLKTLNVNKIIALGHSGFEMDKLIAQKVRGVDVVVGGHSNTFLYTGNPPSKEVPAGKYPFIVTSDDGRKVPVVQAYAFGKYLGYLKIEFDERGNVISSHGNPILLNSSIPEDPSIKADINKWRIKLDNYSTQELGKTIVYLDGSSQSCRFRECNMGNLICDAMINNNLRHTDEMFWNHVSMCILNGGGIRSPIDERNNGTITWENLAAVLPFGGTFDLVQLKGSTLKKAFEHSVHRYGQSTGEFLQVGGIHVVYDLSRKPGDRVVKLDVLCTKCRVPSYDPLKMDEVYKVILPNFLANGGDGFQMIKDELLRHDSGDQDINVVSTYISKMKVIYPAVEGRIKFSTGS
modifications: C-terminal Ala-Cys-Lys after the flag tag (Ala from the construct, Cys-Lys dipeptide added by expressed protein ligation); PEG2-biotin on the epsilon-amino group of the lysine
notes: soluble CD73 (5'-nucleotidase), truncated after residue S552; Uniprot P21589; Chain order: CD73(to S552)-flag-Ala-Cys-Lys(PEG2-biotin); Secreted protein; also called CD73 labeled with CK-biotin; sCD73flagACK-label; source: HEK293 cells transduced with BacMam, secreted as GyrA-CBD fusion; captured on chitin resin, ligated in 36 mM MESNA, sized on Superdex 200; not shown: FLAG, C-terminal, kept
  stoichiometry N: 2

B2: sCD73-flag-CK-fluorescein (soluble CD73 truncated after S552, C-terminal flag-Ala, ligated to C[K-fluorescein]) (enzyme, human, UniProt P21589 27-552, looked up)
chain: WELTILHTNDVHSRLEQTSEDSSKCVNASRCMGGVARLFTKVQQIRRAEPNVLLLDAGDQYQGTIWFTVYKGAEVAHFMNALRYDAMALGNHEFDNGVEGLIEPLLKEAKFPILSANIKAKGPLASQISGLYLPYKVLPVGDEVVGIVGYTSKETPFLSNPGTNLVFEDEITALQPEVDKLKTLNVNKIIALGHSGFEMDKLIAQKVRGVDVVVGGHSNTFLYTGNPPSKEVPAGKYPFIVTSDDGRKVPVVQAYAFGKYLGYLKIEFDERGNVISSHGNPILLNSSIPEDPSIKADINKWRIKLDNYSTQELGKTIVYLDGSSQSCRFRECNMGNLICDAMINNNLRHTDEMFWNHVSMCILNGGGIRSPIDERNNGTITWENLAAVLPFGGTFDLVQLKGSTLKKAFEHSVHRYGQSTGEFLQVGGIHVVYDLSRKPGDRVVKLDVLCTKCRVPSYDPLKMDEVYKVILPNFLANGGDGFQMIKDELLRHDSGDQDINVVSTYISKMKVIYPAVEGRIKFSTGS
modifications: C-terminal Ala-Cys-Lys after the flag tag (Ala from the construct, Cys-Lys dipeptide added by expressed protein ligation); fluorescein on the epsilon-amino group of the lysine
notes: soluble CD73 (5'-nucleotidase), truncated after residue S552; Uniprot P21589; Chain order: CD73(to S552)-flag-Ala-Cys-Lys(fluorescein); Secreted protein; also called CD73 EPL fluorescein labeled; CD73 labeled with CK-fluorescein; source: HEK293 cells transduced with BacMam, secreted as GyrA-CBD fusion; captured on chitin resin, ligated in 36 mM MESNA, sized on Superdex 200; not shown: FLAG, …
  stoichiometry N: 2

Reference: article PMC6739470, “Modular Protein Ligation: A New Paradigm as a Reagent Platform for Pre-Clinical Drug Discovery” (Scientific Reports, 2019)
